From patent US20160185871A1 (UNIVERSITY OF TOKYO, published 2016)

B1: J15A7 antibody (antibody, mouse IgG1, kappa, V domains shown)
VH: QVQLQQPGAELVMPGASVKMSCKASGYTFTDYWMHWVKQRPGQGLEWIGVIDTSDSYTSYNQKFNRKATLTVDESSSTAYMQLSSLTSEDSAVYYCARDGPYYAMDYWGQGTSVTVSS
VL: QIVLTQSPAIMSASPGEKVTISCSASSGVSYMYWYQQKPGSSPKPWIYRTSNLASGVPARFSGSGSGTSYSLTISSMEAEDAATYYCHQYHSDPRTFGGGTKLEIKR
notes: Mouse monoclonal antibody from a hybridoma, IgG1/kappa; also called anti-TLR9 monoclonal antibody J15A7
B2: C34A1 antibody (antibody, mouse IgG2a, kappa, V domains shown)
VH: EVQLVESGGDLVKPGGSLKLSCAASGFTFSSYAMSWVRQTPDNRLEWVATSSSVGSYAYYPDNVKGRFTISRDNAKNTLYLQMSSLKSEDTAMYYCARRDYDARYWYFDVWGAGTTVTVSS
VL: DIKMTQSPSSMYASLGERVTITCKASQDIKSYLSWYQLKPWKSPKTLIYYATTLADGVPSRFSGSGSGQDYSLTISSLESDDTATYYCLQHGESPYTFGGGTKLEIKR
notes: Mouse monoclonal antibody from a hybridoma, IgG2a/kappa
B3: A94B10 antibody (antibody, V domains shown)
VH: EVKLVESGGGLVQPGGSLRLSCTTSGFTFSDFYMEWVRQPPGKRLEWIAASRNKRNDHTTEYSASVKGRFIVSRDTSQNILYLQMNALRAEDTAIYYCARDADYYGSSTWYFDVWGAGTTVTVSS
VL: DIVMTQSHKFMSTSVGDRVSITCKASQDVRTAVAWYQQKPGQSPKLLIYWASTRHTGVPDRFTGSGSGTDYTLTISSVQAEDLALYYCQQHYNTPPTFGGGTKLEIKR
notes: Mouse monoclonal antibody from a hybridoma, isotype IgG1; Chains were determined from full-length cDNA (5'-RACE); also called anti-mouse TLR7 antibody A94B10; anti-TLR7 monoclonal antibody
B4: B33A4 antibody (antibody, V domains shown)
VH: EVLLQQSGPELVKPGASVKIPCKASGFTFTDYNLDWVKQSHEKSLEWIGDINPNTGGTIYNQNFKGKATLTVDRSSGTAYMELRSLTSEDTAVYFCARYFVSNYGYFDVWGAGTTVTVSS
VL: SIVMTQTPKFLLVSAGDRVTITCKASQSVSYDVAWYQQKPGQSPKLLIYYASNLYTGVPDRFTGSGYGTDFTFTISTVQAEDLAVYFCQQDSSSPYTFGGGTKLEIKR
notes: Mouse monoclonal antibody from a hybridoma, IgG2a/kappa; also called anti-TLR9N

Legend:
mouse TLR9 = biological target: T1, mouse TLR9 (mouse, UniProt Q9EQU3 26-1032); assay: flow cytometry on Ba/F3_mTLR9 cells, hybridoma selection
T1 construct: Stands for three settings: mouse TLR9 expressed in Ba/F3 cells (Ba/F3_mTLR9), alone or with Unc93B1, and endogenous TLR9 of spleen DC; also called mTLR9; endogenous TLR9
T1 sequence: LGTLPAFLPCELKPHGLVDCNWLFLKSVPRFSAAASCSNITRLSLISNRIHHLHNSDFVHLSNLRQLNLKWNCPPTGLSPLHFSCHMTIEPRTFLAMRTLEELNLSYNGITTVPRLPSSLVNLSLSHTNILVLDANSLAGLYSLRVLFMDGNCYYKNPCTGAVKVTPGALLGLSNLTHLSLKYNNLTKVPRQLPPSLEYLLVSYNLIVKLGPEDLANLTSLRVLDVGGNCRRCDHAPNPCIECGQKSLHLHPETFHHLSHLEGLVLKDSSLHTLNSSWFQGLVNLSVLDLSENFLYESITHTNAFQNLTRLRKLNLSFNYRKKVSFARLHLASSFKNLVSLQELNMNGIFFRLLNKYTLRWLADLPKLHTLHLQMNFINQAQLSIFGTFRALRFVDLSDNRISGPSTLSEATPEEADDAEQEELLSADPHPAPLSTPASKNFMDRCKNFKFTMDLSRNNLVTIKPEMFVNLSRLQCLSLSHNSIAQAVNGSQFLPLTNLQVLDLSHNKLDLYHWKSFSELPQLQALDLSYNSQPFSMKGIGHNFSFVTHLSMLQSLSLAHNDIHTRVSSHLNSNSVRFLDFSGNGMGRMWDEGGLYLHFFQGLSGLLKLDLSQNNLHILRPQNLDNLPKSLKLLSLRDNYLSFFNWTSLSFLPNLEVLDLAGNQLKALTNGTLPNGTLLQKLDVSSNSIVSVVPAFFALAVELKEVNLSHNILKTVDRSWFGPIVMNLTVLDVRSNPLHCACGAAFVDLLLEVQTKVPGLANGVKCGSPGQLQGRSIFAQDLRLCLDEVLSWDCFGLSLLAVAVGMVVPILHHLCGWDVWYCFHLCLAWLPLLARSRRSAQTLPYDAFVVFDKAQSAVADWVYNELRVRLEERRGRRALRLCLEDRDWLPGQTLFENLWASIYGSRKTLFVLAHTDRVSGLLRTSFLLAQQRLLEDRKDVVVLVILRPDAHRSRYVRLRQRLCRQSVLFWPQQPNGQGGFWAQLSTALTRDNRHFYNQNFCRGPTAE
From the text: In order to establish a monoclonal antibody (mAb) against mouse TLR9, BALB/c TLR9^{-/-} mice were immunized with Ba/F3 cells(Ba/F3_mTLR9) that expressed mouse TLR9. Four days after final immunization, the spleen cells were fused with the SP2/0 myeloma cells. Hybridomas producing anti-mouse TLR9 mAb were selected by flow cytometry based on the staining of the Ba/F3 cells used for immunization. Three monoclonal antibodies J15A7 (IgG1/κ), C34A1 (IgG2a/κ), and B33A4 (IgG2a/κ) were established.

[1] = biological target: T2, mouse TLR9 having Flag-His6 added on the C-terminal side (mouse, UniProt Q9EQU3 26-1032); assay: membrane permeability staining of Ba/F3 cells, flow cytometry
T2 construct: Expressed in Ba/F3 cells and stained after membrane permeabilisation; not shown: C-terminal Flag-His6 tag
T2 sequence: T1 sequence

[2] = biological target: T3, human TLR9 having Flag-His6 added on the C-terminal side (human, UniProt Q9NR96 26-1032); assay: as above
T3 construct: whole, on cells; Expressed in Ba/F3 cells and stained after membrane permeabilisation; not shown: C-terminal Flag-His6 tag
T3 sequence (looked up): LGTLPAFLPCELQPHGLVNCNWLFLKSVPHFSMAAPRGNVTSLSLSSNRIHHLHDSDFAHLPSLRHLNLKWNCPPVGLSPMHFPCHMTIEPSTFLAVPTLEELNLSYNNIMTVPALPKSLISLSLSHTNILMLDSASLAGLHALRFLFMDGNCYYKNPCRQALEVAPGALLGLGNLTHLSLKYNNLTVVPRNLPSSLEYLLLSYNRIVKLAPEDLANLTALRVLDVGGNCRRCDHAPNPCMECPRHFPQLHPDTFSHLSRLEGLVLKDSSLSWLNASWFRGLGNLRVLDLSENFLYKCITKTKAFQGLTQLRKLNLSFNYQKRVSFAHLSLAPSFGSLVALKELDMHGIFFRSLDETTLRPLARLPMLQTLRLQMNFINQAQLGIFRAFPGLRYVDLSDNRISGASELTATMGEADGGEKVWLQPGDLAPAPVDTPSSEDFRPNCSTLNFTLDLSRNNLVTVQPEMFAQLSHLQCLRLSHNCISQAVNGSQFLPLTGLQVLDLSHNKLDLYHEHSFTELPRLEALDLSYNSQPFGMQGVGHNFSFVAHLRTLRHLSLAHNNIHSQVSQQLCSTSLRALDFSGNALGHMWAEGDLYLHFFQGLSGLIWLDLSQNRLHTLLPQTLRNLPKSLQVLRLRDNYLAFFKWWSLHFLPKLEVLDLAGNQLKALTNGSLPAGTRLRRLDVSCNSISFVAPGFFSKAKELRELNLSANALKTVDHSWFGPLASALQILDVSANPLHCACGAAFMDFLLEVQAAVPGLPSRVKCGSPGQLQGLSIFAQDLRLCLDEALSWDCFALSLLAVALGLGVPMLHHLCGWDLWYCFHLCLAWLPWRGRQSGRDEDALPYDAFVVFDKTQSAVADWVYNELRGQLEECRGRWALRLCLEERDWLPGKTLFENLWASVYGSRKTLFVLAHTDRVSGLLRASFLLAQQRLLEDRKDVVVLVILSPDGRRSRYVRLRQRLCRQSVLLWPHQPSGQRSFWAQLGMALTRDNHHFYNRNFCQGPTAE

[3] = biological target: T4, C terminal region TLR7 (TLR7C; from 461-st glutamic acid to 837-th aspartic acid) (mouse, UniProt P58681 461-837); assay: flow cytometry on cells displaying the fragment
T4 construct: not shown: N-terminal HA antigen added by the pDisplay vector; Cell-surface display (membrane anchor) part of the pDisplay vector; not described
T4 sequence: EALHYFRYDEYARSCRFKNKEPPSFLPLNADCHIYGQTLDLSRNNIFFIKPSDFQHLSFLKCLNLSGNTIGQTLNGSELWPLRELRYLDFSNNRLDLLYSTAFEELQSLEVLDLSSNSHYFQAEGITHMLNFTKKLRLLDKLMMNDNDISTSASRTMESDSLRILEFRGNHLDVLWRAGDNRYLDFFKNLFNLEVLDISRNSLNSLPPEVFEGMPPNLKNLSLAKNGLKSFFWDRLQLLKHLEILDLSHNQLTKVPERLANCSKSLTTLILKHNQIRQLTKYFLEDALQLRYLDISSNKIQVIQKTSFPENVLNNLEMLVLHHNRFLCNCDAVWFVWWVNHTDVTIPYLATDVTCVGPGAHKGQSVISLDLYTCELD

TLR7N27-312 = biological target: T5, TLR7N27-312 (mouse, UniProt P58681 27-312); assay: flow cytometry on a cell line expressing the fragment
T5 construct: Expressed in a cell line; also called fragment of TLR7 from position 27 to position 312
T5 sequence: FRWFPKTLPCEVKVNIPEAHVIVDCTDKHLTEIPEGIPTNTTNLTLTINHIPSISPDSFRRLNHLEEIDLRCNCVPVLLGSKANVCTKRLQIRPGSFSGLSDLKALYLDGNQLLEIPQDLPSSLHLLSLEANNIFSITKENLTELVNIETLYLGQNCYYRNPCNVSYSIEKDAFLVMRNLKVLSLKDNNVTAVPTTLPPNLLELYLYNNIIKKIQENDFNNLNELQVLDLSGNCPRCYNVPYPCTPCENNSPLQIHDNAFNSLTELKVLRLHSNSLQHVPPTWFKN

| Binder | binding result (mouse TLR9) | binding result [1] | binding result [2] | binding result [3] | binding result (TLR7N27-312) |
| --- | --- | --- | --- | --- | --- |
| B1 | binds | binds | no binding | – | – |
| B2 | binds | binds | no binding | – | – |
| B3 | – | – | – | no binding | no binding |
| B4 | – | – | no binding | – | – |
